Assay results: patent EP4545090A1 (Universität Leipzig, dated 2025)
One block for each molecule: values may come before it.

Columns and labels:
[1] = biological target: IFNAR1 as used in the microscale thermophoresis binding assay (Homo sapiens (Human)) (UniProt P17181); assay: microscale thermophoresis binding assay
[2] = biological target: T1, IFNGR1, human, endogenous in podocytes (human, UniProt P15260 18-489); assay: TF co-immunoprecipitation from human podocyte lysates, immunoblot
T1 construct: whole, on cells
T1 sequence (looked up): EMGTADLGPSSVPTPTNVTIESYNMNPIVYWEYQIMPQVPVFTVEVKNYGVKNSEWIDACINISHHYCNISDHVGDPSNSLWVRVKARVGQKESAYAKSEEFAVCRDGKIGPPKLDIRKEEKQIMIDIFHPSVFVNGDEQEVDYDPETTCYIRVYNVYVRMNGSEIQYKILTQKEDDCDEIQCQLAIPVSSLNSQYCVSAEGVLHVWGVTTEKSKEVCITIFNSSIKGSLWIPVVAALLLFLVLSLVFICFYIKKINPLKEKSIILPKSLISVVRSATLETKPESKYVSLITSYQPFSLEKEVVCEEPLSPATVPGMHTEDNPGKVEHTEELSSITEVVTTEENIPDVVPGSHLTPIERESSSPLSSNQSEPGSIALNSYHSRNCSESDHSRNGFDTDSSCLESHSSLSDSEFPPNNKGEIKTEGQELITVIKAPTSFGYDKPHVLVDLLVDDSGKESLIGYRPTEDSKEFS

Kd [1]: 1160 nM
Molecule: tissue factor (TF) as used in the microscale thermophoresis binding assay (from UniProt P13726 33-251) (receptor)

binding result [2]: no binding
B1: tissue factor (TF), human, as expressed by cells (receptor)
chain: SGTTNTVAAYNLTWKSTNFKTILEWEPKPVNQVYTVQISTKSGDWKSKCFYTTDTECDLTDEIVKDVKQTYLARVFSYPAGNVESTGSAGEPLYENSPEFTPYLETNLGQPTIQSFEQVGTKVNVTVEDERTLVRRNNTFLSLRDVFGKDLIYTLYYWKSSSSGKKTAKTNTNEFLIDVDKGENYCFSVQAVIPSRTVNRKGTDSPVECMGQEKGEFREIFYIIGAVVFVVIILVIILAISLHKCRKAGVGQSWKENSPLNVS
notes: also called hTF; human TF
